# According to FireProtDB (doi:10.1093/jb/mvy087):
# Details: Equus caballus; pH 7; Thermal; CD; CAPS buffer; transition: 2; reversible: yes
# Sequence of Cytochrome c wild type, P00004 (P00004 whole entry): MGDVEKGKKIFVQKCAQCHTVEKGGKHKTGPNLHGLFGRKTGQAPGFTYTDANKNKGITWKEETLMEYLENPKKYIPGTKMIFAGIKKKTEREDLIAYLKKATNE
substance,measurement,value
"Cytochrome c wild type, P00004",Tm,83.4 °C
same,heat capacity change of unfolding,1.3 kcal/mol/K
same,unfolding enthalpy (calorimetric),76.7 kcal/mol
